Square brackets hold non-standard residues; d marks the D form. Ends that are not written are not given here. APPA = 2-aminophenyl pentanoic acid; hArg = N=C(N)NCCCC[C@H](N)C(=O)O; Cit = NC(=O)NCCC[C@H](N)C(=O)O; Nle = CCCC[C@H](N)C(=O)O; Aib = CC(C)(N)C(=O)O
T1: ANGPTL3 (Homo sapiens, UniProt Q9Y5C1)
T1 construct: In humans, Evinacumab (a therapeutic mAb developed against ANGPTL3) caused a dose-dependent reduction; host or cells: human subjects (circulating endogenous protein)
T1 sequence (Q9Y5C1 17-460): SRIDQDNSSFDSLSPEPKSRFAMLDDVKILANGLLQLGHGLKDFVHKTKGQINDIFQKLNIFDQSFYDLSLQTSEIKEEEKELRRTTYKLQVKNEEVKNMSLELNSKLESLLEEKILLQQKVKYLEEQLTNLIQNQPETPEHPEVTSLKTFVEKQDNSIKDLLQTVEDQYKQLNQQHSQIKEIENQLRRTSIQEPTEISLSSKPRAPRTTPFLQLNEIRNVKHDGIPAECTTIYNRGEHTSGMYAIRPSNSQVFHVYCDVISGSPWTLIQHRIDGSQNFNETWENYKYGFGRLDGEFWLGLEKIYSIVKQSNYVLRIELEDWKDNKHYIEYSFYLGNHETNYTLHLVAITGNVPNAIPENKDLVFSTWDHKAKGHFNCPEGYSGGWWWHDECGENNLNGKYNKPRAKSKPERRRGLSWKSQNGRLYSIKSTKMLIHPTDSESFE


Experiments:
[1] = system: Anti-ANGPTL3 polyclonal antibody (ABC83, Sigma); experiment: Affinity determination of peptides with anti-ANGPTL3 antibody by surface plasmon resonance (Biacore T200); assay type: binding; conditions: SPR, peptide 1 mM in 1×PBS over immobilized anti-ANGPTL3 pAb, 25° C., response 5 s before end of injection
Protocol: Affinity of novel peptides of the present invention with anti-ANGPTL3 antibody ‘ANG’ was analysed by surface plasmon resonance (SPR), using a Biacore instrument (Biacore T200, GE Healthcare). SPR experiments were performed at […] with a BIACORE T200 apparatus (GE Healthcare, Uppsala, Sweden).
Surface Preparation: (Procedure for Antibody immobilization) Series S Sensor Chip CM5 surface was activated by a 7-min injection of EDC-NHS. Anti-ANGPTL3 polyclonal antibody (ABC83, Sigma), diluted to 4.5 μg/mL in 10 mM acetate buffer (pH 4.0), was immobilized on one of the four flow cells of a Series S Sensor Chip CM5 with the aim of 10000 RU (resonance units) using amine-coupling. The surface was blocked with 1M ethanolamine (pH 8.5). One flow cell was immobilized as blank for reference subtraction (without antibody). 1×PBS was used as running buffer.
Binding experiments: 1 mM stock of novel peptides of the present invention were made in 1×PBS and binding studies were conducted by passing over blank as well as ligand (anti-ANGPTL3 pAb) immobilized surface. Each cycle consisted of 120 s analyte (novel peptides of the present invention) injection at a flow rate of 10 μL/min (the association phase), followed by a dissociation phase of 300 s. Purified human recombinant ANGPTL3 (FLAG-tag, 91009-1, bps bioscience) was used as positive control (1 μM) and was analyzed under identical condition. Complete dissociation of ANGPTL3 and anti-ANGPTL3 antibody interaction was achieved by regenerating surface with 10 mM glycine/HCl (pH 2.0) for 40 s at a flow rate of 10 μl/min injection.
Data Analysis: The data was analyzed using the Biacore T200 Evaluation software. All the curves were initially reference-subtracted (from blank immobilized surface) and then subtracted from zero analyte concentration. Baselines were adjusted to zero for all curves and data was presented as Relative response or binding RU (Average of 5 s window) 5 s before end of sample injection.
Affinity of novel peptides of vaccine with ANGPTL3 antibody ANG were analysed by surface plasmon resonance (SPR), using a Biacore instrument (Biacore T200, GE Healthcare). SPR experiments were performed at 25° C. with a BIACORE T200 apparatus (GE Healthcare, Uppsala, Sweden).

[2] = biological target: T1, ANGPTL3; conditions: humans, dose-dependent; cited from earlier work
[3] = biological target: Anti-ANGPTL3 polyclonal antibody (ABC83, Sigma); experiment: SPR (Biacore T200), antibody immobilised on CM5, peptide as analyte at 1 mM

Relative response [3]	Molecule	Relative response [1]	other results
–	85 (C[Cit]FAMLDDVLILANGLLQLGHGLKDFVHKTKGQI) [compound 85]	4924.7 RU	–
–	49 (CRFAMLDDVKILANGLLQLGHGLKDFVHKTKGQI; artificial ANGPTL3 peptide) [compound 49]	5464.1 RU	–
–	84 (CRF[Aib]MLDDVKILANGLLQLGHGLKDFVHKTKGQI) [compound 84]	5813.7 RU	–
–	6 (RFAMLDDV[Cit]ILANGLLQLGHGLKDFVHKTKGQI) [compound 6]	6084.1 RU	–
–	87 (CRFAMLDDV[Cit]ILANGLLQLGHGLKDFVHKTKGQI) [compound 87]	5820.9 RU	–
–	5 (CRFAM[Nle]DDVKILANGLLQLGHGLKDFVHKTKGQI) [compound 5]	5850 RU	–
–	79 ([Cit]FAMLDDV[Cit]ILANGLLQLGHGLKDFVHKTKGQI) [compound 79]	6152.5 RU	–
–	86 (CR[APPA]AMLDDVKILANGLLQLGHGLKDFVHKTKGQI) [compound 86]	5130.1 RU	–
–	2 (R[APPA]AMLDDVKILANGLLQLGHGLKDFVHKTKGQI) [compound 2]	5674 RU	–
–	1 (RFAMLDDVKILANGLLQLGHGLKDFVHKTKGQI; artificial ANGPTL3 peptide) [compound 1]	4832.6 RU	–
–	78 (RF[Aib]MLDDVKILANGLLQLGHGLKDFVHKTKGQI) [compound 78]	5539.6 RU	–
–	Evinacumab	–	reduction in LDL cholesterol levels [2]: up to 23%; reduction in fasting triglyceride levels [2]: up to 76%
–	83 (C[hArg]FAMLDDVKILANGLLQLGHGLKDFVHKTKGQI) [compound 83]	5895.2 RU	–
–	80 ([hArg]FAMLDDVKILANGLLQLGHGLKDFVHKTKGQI) [compound 80]	5308.2 RU	–
–	82 (C[Cit]FAMLDDV[Cit]ILANGLLQLGHGLKDFVHKTKGQI) [compound 82]	5518.3 RU	–
5810 RU	CRF[Aib]MLDDVKILANGLLQLGHGLKDFVHKTKGQI [Peptide of SEQ ID NO. 84 (C-RF-Aib-…)]	–	–
5850 RU	CRFAM[Nle]DDVKILANGLLQLGHGLKDFVHKTKGQI [Peptide of SEQ ID NO. 5 (CRFAM-Nle-…)]	–	–
5520 RU	C[Cit]FAMLDDV[Cit]ILANGLLQLGHGLKDFVHKTKGQI [Peptide of SEQ ID NO. 82 (C-Cit-FAMLDDV-Cit-…)]	–	–
6150 RU	[Cit]FAMLDDV[Cit]ILANGLLQLGHGLKDFVHKTKGQI [Peptide of SEQ ID NO. 79 (Cit-FAMLDDV-Cit-…)]	–	–
5310 RU	[hArg]FAMLDDVKILANGLLQLGHGLKDFVHKTKGQI [Peptide of SEQ ID NO. 80 (Har-…)]	–	–
6080 RU	RFAMLDDV[Cit]ILANGLLQLGHGLKDFVHKTKGQI [Peptide of SEQ ID NO. 6 (RFAMLDDV-Cit-…)]	–	–
5820 RU	CRFAMLDDV[Cit]ILANGLLQLGHGLKDFVHKTKGQI [Peptide of SEQ ID NO. 87 (C-RFAMLDDV-Cit-…)]	–	–
5130 RU	CR[APPA]AMLDDVKILANGLLQLGHGLKDFVHKTKGQI [Peptide of SEQ ID NO. 86 (C-R-APPA-…)]	–	–
4920 RU	C[Cit]FAMLDDVLILANGLLQLGHGLKDFVHKTKGQI [Peptide of SEQ ID NO. 85 (C-Cit-…)]	–	–
5460 RU	CRFAMLDDVKILANGLLQLGHGLKDFVHKTKGQI [Peptide of SEQ ID NO. 49 (…)]	–	–
5540 RU	RF[Aib]MLDDVKILANGLLQLGHGLKDFVHKTKGQI [Peptide of SEQ ID NO. 78 (RF-Aib-…)]	–	–
4830 RU	RFAMLDDVKILANGLLQLGHGLKDFVHKTKGQI [Peptide of SEQ ID NO. 1 (…)]	–	–
5670 RU	R[APPA]AMLDDVKILANGLLQLGHGLKDFVHKTKGQI [Peptide of SEQ ID NO. 2 (R-APPA-…)]	–	–
5900 RU	C[hArg]FAMLDDVKILANGLLQLGHGLKDFVHKTKGQI [Peptide of SEQ ID NO. 83 (C-Har-…)]	–	–

Source: patent publication US20220380425A1, “ANGPTL3 BASED VACCINE FOR THE TREATMENT OF LIVER DISEASE” (CADILA HEALTHCARE LIMITED, priority 2019, published 2022)
